The source of these data is article PMC6888457, “PpAKR1A, a Novel Aldo-Keto Reductase from Physcomitrella Patens, Plays a Positive Role in Salt Stress” (International Journal of Molecular Sciences, 2019).

A word on the Km: it is the substrate concentration at which the rate is half of its maximum. Usually kcat stands for the number of substrate molecules converted per active site and unit of time at saturation. Usually kcat/Km stands for the second-order rate constant that governs catalysis at low substrate concentration.

In data set [1] the target is T1, PpAKR1A (Physcomitrium patens, UniProt A9RMV1).
T1 construct: gene LOC112295666; full coding region (from ATGGCGTTCGAAGTGCCT), expressed in E. coli BL21 from pMAL-c1 (BamHI/SalI); purified on Ni-NTA as 'His-fusion' (tag description inconsistent: MBP vector vs His)
T1 sequence (A9RMV1 1-354): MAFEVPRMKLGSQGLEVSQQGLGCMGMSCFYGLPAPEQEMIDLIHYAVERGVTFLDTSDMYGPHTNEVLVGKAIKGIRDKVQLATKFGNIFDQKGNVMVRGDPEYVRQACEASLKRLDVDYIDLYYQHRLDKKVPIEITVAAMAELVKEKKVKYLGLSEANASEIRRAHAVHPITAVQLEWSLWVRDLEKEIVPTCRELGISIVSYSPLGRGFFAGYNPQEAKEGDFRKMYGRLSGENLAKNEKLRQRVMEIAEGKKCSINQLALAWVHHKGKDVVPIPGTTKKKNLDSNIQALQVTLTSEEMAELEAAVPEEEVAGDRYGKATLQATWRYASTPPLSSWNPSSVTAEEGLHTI
The experiment in a line: spectrophotometric NADPH oxidation at […] nm, Michaelis-Menten non-linear fit. Type of data set: biochemical. Particulars: 150 µM NADPH, 50 mM Tris-HCl pH 7.0, 25 °C; apparent constant.

Substrate in data set [2]: O=CC=O
Kind of data set: purified protein. In kind it is biochemical, Physcomitrium patens. Conditions: 150 µM NADPH, 50 mM Tris-HCl pH 7.0, 25 °C, apparent constant.

Substrate in data set [3]: CC(=O)C=O
Kind of data set: purified protein. In kind it is biochemical, Physcomitrium patens. Particulars: 150 µM NADPH, 50 mM Tris-HCl pH 7.0, 25 °C, apparent constant.

For the molecule `C=CC=O` [Acrolein], in data set [1], the Km worked out at 6.2 ± 1.11 mM.

B1: PpAKR1A (Physcomitrium patens) (protein)
chain: MAFEVPRMKLGSQGLEVSQQGLGCMGMSCFYGLPAPEQEMIDLIHYAVERGVTFLDTSDMYGPHTNEVLVGKAIKGIRDKVQLATKFGNIFDQKGNVMVRGDPEYVRQACEASLKRLDVDYIDLYYQHRLDKKVPIEITVAAMAELVKEKKVKYLGLSEANASEIRRAHAVHPITAVQLEWSLWVRDLEKEIVPTCRELGISIVSYSPLGRGFFAGYNPQEAKEGDFRKMYGRLSGENLAKNEKLRQRVMEIAEGKKCSINQLALAWVHHKGKDVVPIPGTTKKKNLDSNIQALQVTLTSEEMAELEAAVPEEEVAGDRYGKATLQATWRYASTPPLSSWNPSSVTAEEGLHTI
notes: full coding region (from …), expressed in E. coli BL21 from pMAL-c1 (BamHI/SalI); purified on Ni-NTA as 'His-fusion' (tag description inconsistent: MBP vector vs His)
Take B1: in data set [2], the Km is recorded as 1.526 ± 0.237 mM, the kcat was determined as 0.063 ± 0.041 s⁻¹ and the kcat/Km turned out to be 63 M⁻¹ s⁻¹. In data set [3], the Km turned out to be 0.2262 ± 0.063 mM, the kcat is 0.86 ± 0.055 s⁻¹ and the kcat/Km was determined as 3810 M⁻¹ s⁻¹.
